The source of these data is patent EP3581587A1 (Shanghai Benemae Pharmaceutical Corporation, dated 2019).

The chains are these.
B1: h-34F8 (antibody, human IgG4, V domains shown)
VH: QVQLQESGPGLVKPSETLSLTCTVSGFSLTTYHVHWVRQPPGKGLEWIGIMWRDGDTYYNSSLKSRVTISRDTSKNQVSLKLSSVTAADTAVYFCARGGTLTTPFTYWGQGTLVTVSS
VL: DVVLTQTPLSLPVTPGEPASISCRSSQSLESRDGNTYLEWYLQKPGQSPQVLLYGVSNRLSGVPDRFSGSGSGTDFTLKISRVEAEDVGVYYCFQATHGPFTFGQGTKLEIKR
B2: h-42A5 (antibody, human IgG4, V domains shown)
VH: QVTLKESGPVLVKPTETLTLTCTVSGFSLTSYHLHWIRQPPGKALEWMGLMWRDGDTSYNSRLKSRLTISRDTSKSQVVLTMTNMDPVDTATYYCARGMTLATPFLYWGQGTLVTVSS
VL: DVVLTQTPLSLSVTPGQPASISCRSSQSLESSDGNTYLEWYLQKPGQSPQLLIYGVSNRFSGVPDRFSGSGSGTDFTLKISRVEAEDLGVYYCFQATRDPFTFGQGTKLEIKR
B3: h-19F6 (antibody, human IgG4, V domains shown)
VH: EVQLVESGGGLVQPGRSLRLSCTASGFTFSKYAMSWVRQAPGKGLEWVSAINYDGSTTYYADSVKGRFTLSRDNSKNTLYLQMNSLRAEDTAVYYCARHPFNNFGIWFAYWGQGTLVTVS
VL: QFQLTQPSSVSASVGDRVTITCERSSGDIGDSYVSWYQQKPGQPPKNVIYADDQRPSGVPDRFSGSIDGSGNSASLTISSLQAEDAADYFCQSYDSNIDFNPVFGGGTKLEVK

The target of this assay is human activated coagulation factor XI (FXIa) (human, UniProt P03951 19-625). Nature of the assay: cell-based or functional assay.
As to B1, the “apparent Ki, inhibition of FXIa cleavage of chromogenic substrate S-2366” value is 2.08 nM. With B2, the “apparent Ki, inhibition of FXIa cleavage of chromogenic substrate S-2366” value is 1.43 nM. For B3 the value was 0.67 nM.
